Laboratory results as given in the Human Domainome abundance scans (Beltran et al. 2025).

B1: Ankyrin-1, residues 1405 to 1484; numbered along this chain, P16157 (parent)
chain: MKMAVISEHLGLSWAELARELQFSVEDINRIRVENPNSLLEQSVALLNLWVIREGQNANMENLYTALQSIDRGEIVNMLE

Variants of: B1
Experiment: abundance fitness (aPCA) (normalised: wild type 0, dead -1); higher = more abundant; growth selection in yeast, the domain comes from the species named
Conditions: Homo sapiens

Abundance fitness: each site, then its substitutions
N48: P -1.07, W -0.834, A -0.415, D 0.154, E -0.458, R -0.006, H -0.042, Q -0.205, L -0.835, I -1.04, M -0.575, F -0.896, G -0.236, T -0.544, C -0.495, K 0.098, V -0.474, S -0.277
N37: C -0.314, K 0.023, R -0.186, P -1.09, Q -0.444, V -0.277, H -0.366, A -0.025, T -0.111, Y -0.322, E -0.005, S -0.064, G -0.166, L -0.199, F -0.152, D -0.023, W -0.36
V51: F 0.071, N -0.159, I 0.017, Y -0.023, W 0.085, A -0.072, Q 0.176, T 0.068, M 0.026, L 0.053, S 0.128, H 0.026, K 0.156, R 0.065, G -0.001
A45: R -0.147, T -0.085, G -0.248, N -0.226, Q -0.139, L -0.627, W -0.921, S -0.03, D -0.306, I -0.45, C -0.259, V -0.513, M -0.173, E -0.023, Y -0.565, F -0.65, P -0.77
L40: T -0.081, Q -0.029, E -0.032, I 0.061, K 0.182, M -0.067, A -0.11, S -0.16, V 0.011, C -0.373, R 0.089, P -0.428, G -0.286, F 0.015, Y -0.189, N -0.372, H -0.136
E54: D -0.3, Y -0.357, N -0.043, H -0.294, W -0.62, S -0.136, G -0.115, V -0.412, Q -0.118, F -0.606, T -0.455, A -0.496, C -0.198, K -0.29, L -0.567, P -0.977, R -0.456, I -0.931, M -0.294
S38: Y -0.749, A -0.258, E -0.514, W -0.754, N -0.174, D -0.048, R -0.478, T -0.291, V -0.351, F -0.345, M -0.353, K -0.386, L -0.781, C -0.099, P -0.822
E34: S -0.144, Y -0.565, W -0.559, V -0.308
P36: K -0.267, Y -0.565, V -0.666, Q 0.123, N -0.104, A 0.016, I -0.459, E -0.066, H -0.31, W -0.219, C -0.069, L -0.774, D -0.165, G -0.298, T -0.525, M -0.064
W50: Y 0.015, G -1.07, F -0.713, A -0.902, P -1, S -0.734, E -0.834, Q -0.708, K -0.655, T -0.823, D -0.653, R -0.863, L -0.368, V -0.923, C -0.71
N35: W -0.222, F -0.219, K -0.064, Y -0.42, I -0.457, M -0.317, E 0.051, T -0.3, R -0.068, V -0.171, S -0.017, Q -0.247, L -0.491, P -0.866, C -0.355, G -0.858, A -0.304
I52: G -0.351
V44: I -0.217, G 0.046, Q 0.18, A 0.148, S 0.154, F 0.182, T 0.161, K 0.327, W -0.021, P -0.911, R 0.181, Y 0.03, D 0.112, L 0.014, M 0.142, C 0.05, E -0.058, N 0.296, H 0.275
L46: S -0.832, Q -1.13, F -0.204, W -0.638, C -0.138, P -0.891, K -0.741, I -0.446, D -1.1, M -0.201, Y -0.614, T -0.143, N -0.878, E -0.987, G -0.953
E41: H -0.161, D 0.007, P -0.574, N 0.162, I -0.579, F -0.28, C -0.173, W -0.563, V -0.467, G -0.086, Q -0.1, A -0.113, M -0.275, T -0.184, S -0.005, K 0.117, Y -0.28, R 0.054
L47: I -0.256, T -0.628, W -0.673, C -0.061, A -0.905, V -0.308, Y -0.997, E -0.874, M 0.061, H -0.503, G -0.521, P -0.654, D -0.743, N -0.914
Q42: P -1.04, T -0.723, S -0.383, Y -0.864, C -0.061, F -0.899, G -0.923, A -0.257, E -0.926, V -0.813, R -0.152, M -0.172, D -0.698, N -0.882, I -0.915, W -0.794, L -0.863
L49: N -0.256, D -0.196, M 0.061, E -0.055, F -0.19, A -0.138, C -0.097, W -0.359, P -0.81, G -0.11, I -0.058, T -0.216, K 0.047, V -0.314, Q 0.014, R -0.088, H -0.239, Y -0.037
G55: R -0.394, K -0.666, T -0.133, Q -0.339, F -0.765, C -0.389, S -0.277, W -1.01, L -0.871, I -0.687, P -0.69, E -0.266, D -0.1, M -0.661
S43: W -0.805, T -0.807, C -0.552, V -0.757, D -0.503, N -0.099, R -0.89, M -1.05, Y -0.857, L -0.944, I -0.919, G 0, K -0.598, P -0.721, H -0.56
Q56: C -0.167, D -0.139, A -0.113
L39: Y 0.004, P 0.058, H -0.42, A -0.103, G -0.423, C 0.066, I -0.41, T 0.116, W -0.262, Q 0.019, D -0.063, R -0.554, M -0.075, E 0.105, F -0.068
R53: F -0.927, P -0.983, V -0.847, D -0.613, Q -0.483, H -0.758, C -0.797, T -0.682, A -0.555, E -0.512, G -0.507, N -0.31, K -0.17, Y -0.842, S -0.591
